The experiment concerns the target human FcRn fused to a His-tag and glutathione S transferase (FcRn-His-GST), complex of FcRn heavy chain with beta-2-microglobulin (human) (UniProt P55899). The experiment in a line: AlphaScreen competition. A general note: Alpha assays give light when donor and acceptor beads are brought close together.

Turning to S239D/E272I/I332E (antibody), the FcRn Binding ratio Variant / WT is 1.81.
S298F (antibody): the FcRn Binding ratio Variant / WT was 1.15.
As for E283K (antibody), the FcRn Binding ratio Variant / WT amounted to 2.74.
For E269M (antibody), the FcRn Binding ratio Variant / WT was found to be 1.11.
As to G237Y (antibody), the FcRn Binding ratio Variant / WT was found to be 1.92.
For the substance A330G (antibody), the FcRn Binding ratio Variant / WT turned out to be 1.01.
Take D270S (antibody): the FcRn Binding ratio Variant / WT was found to be 1.03.
E269V (antibody): the FcRn Binding ratio Variant / WT was 1.38.
Consider G237S (antibody), for which the FcRn Binding ratio Variant / WT was determined as 1.29.
Take V284T (antibody): the FcRn Binding ratio Variant / WT stood at 1.15.
With Y296E (antibody), the FcRn Binding ratio Variant / WT came out at 1.23.
Take S239R (antibody): the FcRn Binding ratio Variant / WT is 1.04.
Regarding S298T (antibody), the FcRn Binding ratio Variant / WT worked out at 2.13.
Next, N325M (antibody): 1.43.
Next, K274M (antibody): 1.01; T260E (antibody): 5.49.
Consider K320L (antibody), for which the FcRn Binding ratio Variant / WT was 1.07.
T223K (antibody): the FcRn Binding ratio Variant / WT came to 2.97.
For G236F (antibody), the FcRn Binding ratio Variant / WT came out at 1.75.
Consider L328R (antibody), for which the FcRn Binding ratio Variant / WT came to 1.82.
As to Y296L (antibody), the FcRn Binding ratio Variant / WT was found to be 2.78.
For E283R (antibody), the FcRn Binding ratio Variant / WT amounted to 1.86.
For the substance K320W (antibody), the FcRn Binding ratio Variant / WT was found to be 1.11.
Take Y300N (antibody): the FcRn Binding ratio Variant / WT is 1.14.
For L234D (antibody), the FcRn Binding ratio Variant / WT was found to be 1.54.
In the case of H285Q (antibody), the FcRn Binding ratio Variant / WT is 1.38.
For the substance A327H (antibody), the FcRn Binding ratio Variant / WT came to 1.29.
Take G236W (antibody): the FcRn Binding ratio Variant / WT was determined as 1.52.
On to T260D (antibody), for which the FcRn Binding ratio Variant / WT stood at 1.71.
For the substance S267E (antibody), the FcRn Binding ratio Variant / WT is 2.24.
As for E269K (antibody), the FcRn Binding ratio Variant / WT was found to be 1.23.
On to Y300V (antibody), for which the FcRn Binding ratio Variant / WT was 1.09.
Take E233S (antibody): the FcRn Binding ratio Variant / WT was 1.1.
On to P238G (antibody), for which the FcRn Binding ratio Variant / WT worked out at 1.53.
The value for E333M (antibody) was 5.46; that for V303E (antibody) was 1.63.
For the substance E318L (antibody), the FcRn Binding ratio Variant / WT was determined as 3.61.
L235T (antibody): the FcRn Binding ratio Variant / WT was determined as 1.65.
Next, S239Q/I332E (antibody): 1.33; S239Q/I332Q (antibody): 1.04.
Next, Y300A (antibody): 1.04; T260Y (antibody): 7.51; L328D/I332E (antibody): 11.8.
With P238N (antibody), the FcRn Binding ratio Variant / WT came to 1.15.
As to L235Y (antibody), the FcRn Binding ratio Variant / WT was 1.02.
In the case of G237H (antibody), the FcRn Binding ratio Variant / WT was determined as 1.48.
With Y300K (antibody), the FcRn Binding ratio Variant / WT came out at 1.01.
For the substance G237M (antibody), the FcRn Binding ratio Variant / WT is 73.4.
In the case of G237D (antibody), the FcRn Binding ratio Variant / WT was determined as 1.84.
On to T299Y (antibody), for which the FcRn Binding ratio Variant / WT worked out at 3.85.
As to S324T (antibody), the FcRn Binding ratio Variant / WT was determined as 1.07.
On to N286Y (antibody), for which the FcRn Binding ratio Variant / WT was 1.45.
As to N276R (antibody), the FcRn Binding ratio Variant / WT came out at 1.19.
As for F241W (antibody), the FcRn Binding ratio Variant / WT was found to be 1.7.
With V303Y (antibody), the FcRn Binding ratio Variant / WT came to 1.15.

For the origin of these results see patent US20090041770A1.
